Data on 1 substance can be found in PMC9964033.

One assay concerns the target Gls. Briefly: interactome comparison (volcano plot). Particulars: CPEB3 and S240-242A expressed in mouse neuroblastoma N2A cells; read off a plot.
In a further assay the target is Wdr77. Briefly: interactome comparison (volcano plot). The note with it: CPEB3 and S240-242A expressed in mouse neuroblastoma N2A cells; read off a plot.

In the case of “CPEB3 (full-length), expressed in mouse neuroblastoma N2A cells (from UniProt Q7TN99) S240A; S241A; S242A”, the other: Log2(Fold Change (Mut/FL)) with Gls is 2.8; in the assay with Wdr77, -4.2.
